Results published in the supplement of paper PMC5998384.

Experiments:
HeLa Kyoto [1] = test: solubility in G1/S (NP-40 vs SDS abundance) (log2 ratio); higher = more soluble; details: cell cycle stage: G1/S
HeLa Kyoto [2] = test: thermal stability score vs G1/S (z-score of summed log2 fold changes over temperatures); higher = more thermally stable than in G1/S
HeLa Kyoto [3] = test: solubility change mitosis vs G1/S (difference of NP-40 vs SDS log2 ratios) (log2 ratio difference); higher = more soluble in mitosis
HeLa Kyoto [4] = test: melting temperature (median over replicates), in situ; higher = more thermally stable
[5] = cell cycle stage: early G1 (4.5 h after nocodazole release)
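Throughout, for melting temperature (median over replicates), in situ: HeLa Kyoto cells synchronized by double thymidine or nocodazole block, proteins quantified by TMT10plex mass spectrometry, three independent biological replicates.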
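Throughout, for solubility change mitosis vs G1/S (difference of NP-40 vs SDS log2 ratios): synchronized HeLa Kyoto cells (double thymidine block for G1/S, nocodazole release for mitosis), protein amounts in NP-40 versus SDS lysates quantified by mass spectrometry, three biological replicates.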
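Throughout, for solubility in G1/S (NP-40 vs SDS abundance): HeLa Kyoto cells arrested at G1/S by double thymidine block, proteins quantified by TMT10plex mass spectrometry in mild NP-40 versus SDS extracts, three biological replicates.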
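Throughout, for thermal stability score vs G1/S (z-score of summed log2 fold changes over temperatures): synchronized HeLa Kyoto cells, proteins quantified by TMT10plex mass spectrometry, three biological replicates, mitosis taken 0.5 h after nocodazole release, G1/S directly after double thymidine block.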

Sequence of PRSS21 (chain, as listed by the source): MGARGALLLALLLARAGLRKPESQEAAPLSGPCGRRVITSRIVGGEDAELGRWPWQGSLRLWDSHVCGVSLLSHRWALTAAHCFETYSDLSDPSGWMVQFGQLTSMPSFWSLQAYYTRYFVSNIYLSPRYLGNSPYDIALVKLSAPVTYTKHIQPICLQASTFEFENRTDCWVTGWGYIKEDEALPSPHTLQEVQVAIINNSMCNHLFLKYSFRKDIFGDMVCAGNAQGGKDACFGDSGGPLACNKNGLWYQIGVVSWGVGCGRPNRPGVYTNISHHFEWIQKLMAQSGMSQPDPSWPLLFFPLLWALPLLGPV
Sequence of LARS (chain, as listed by the source): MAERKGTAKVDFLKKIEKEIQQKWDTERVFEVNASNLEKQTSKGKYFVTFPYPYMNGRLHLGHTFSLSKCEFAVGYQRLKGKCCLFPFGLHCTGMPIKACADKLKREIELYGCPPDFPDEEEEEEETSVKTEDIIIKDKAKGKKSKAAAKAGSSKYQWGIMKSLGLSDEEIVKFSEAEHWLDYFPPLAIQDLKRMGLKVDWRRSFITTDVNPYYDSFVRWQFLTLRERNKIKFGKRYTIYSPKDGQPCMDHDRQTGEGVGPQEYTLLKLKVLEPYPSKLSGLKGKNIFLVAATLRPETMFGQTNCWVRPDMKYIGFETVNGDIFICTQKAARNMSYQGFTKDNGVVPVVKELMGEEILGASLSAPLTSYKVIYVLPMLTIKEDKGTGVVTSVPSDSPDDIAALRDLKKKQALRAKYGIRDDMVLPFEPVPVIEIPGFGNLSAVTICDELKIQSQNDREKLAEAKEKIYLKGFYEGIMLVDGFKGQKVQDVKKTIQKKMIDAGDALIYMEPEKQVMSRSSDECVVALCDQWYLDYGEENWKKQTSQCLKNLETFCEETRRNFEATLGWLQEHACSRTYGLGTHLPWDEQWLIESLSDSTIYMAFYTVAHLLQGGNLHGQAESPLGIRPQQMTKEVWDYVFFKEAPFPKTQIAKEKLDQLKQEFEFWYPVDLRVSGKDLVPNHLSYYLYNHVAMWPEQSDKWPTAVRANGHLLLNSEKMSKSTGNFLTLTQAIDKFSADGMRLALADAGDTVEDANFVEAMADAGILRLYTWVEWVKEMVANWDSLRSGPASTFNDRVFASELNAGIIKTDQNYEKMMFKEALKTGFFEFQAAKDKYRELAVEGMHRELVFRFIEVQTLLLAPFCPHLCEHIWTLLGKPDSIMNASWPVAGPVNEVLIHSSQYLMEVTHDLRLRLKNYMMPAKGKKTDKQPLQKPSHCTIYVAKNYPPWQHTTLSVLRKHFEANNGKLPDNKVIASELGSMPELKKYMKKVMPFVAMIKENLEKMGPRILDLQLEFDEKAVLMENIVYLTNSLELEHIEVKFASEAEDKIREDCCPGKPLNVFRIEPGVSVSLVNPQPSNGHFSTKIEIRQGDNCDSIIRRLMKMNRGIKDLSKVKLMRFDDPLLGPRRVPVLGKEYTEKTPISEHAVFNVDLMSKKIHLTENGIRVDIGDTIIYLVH

Substance | solubility in G1/S (log2) (HeLa Kyoto [1]) | thermal stability score (HeLa Kyoto [2]; [5]) | thermal stability score (HeLa Kyoto [2]; cell cycle stage: mitosis) | solubility change mitosis (log2) (HeLa Kyoto [3]) | melting temperature (HeLa Kyoto [4]; cell cycle stage: G1/S) | melting temperature (HeLa Kyoto [4]; cell cycle stage: mitosis)
MPCGEDWLSHPLGIVQGFFAQNGVNPDWEKKVIEYFKEKLKENNAPKWVPSLNEVPLHYLKPNSFVKFRCMIQDMFDPEFYMGVYETVNQNTKAHVLHFGKYRDVAECGPQQELDLNSPRNTTLERQTFYCVPVPGESTWVKEAYVNANQARVSPSTSYTPSRHKRSYEDDDDMDLQPNKQKDQHAGARQAGSVGGLQWCGEPKRLETEASTGQQLNSLNLSSPFDLNFPLPGEKGPACLVKVYEDWDCFKVNDILELYGILSVDPVLSILNNDERDASALLDPMECTDTAEEQRVHSPPASLVPRIHVILAQKLQHINPLLPACLNKEESKTCKFVSSFMSELSPVRAELLGFLTHALLGDSLAAEYLILHLISTVYTRRDVLPLGKFTVNLSGCPRNSTFTEHLYRIIQHLVPASFRLQMTIENMNHLKFIPHKDYTANRLVSGLLQLPSNTSLVIDETLLEQGQLDTPGVHNVTALSNLITWQKVDYDFSYHQMEFPCNINVFITSEGRSLLPADCQIHLQPQLIPPNMEEYMNSLLSAVLPSVLNKFRIYLTLLRFLEYSISDEITKAVEDDFVEMRKNDPQSITADDLHQLLVVARCLSLSAGQTTLSRERWLRAKQLESLRRTRLQQQKCVNGNEL [MCMBP] | 0.324 | 0.0238 | 2.25 | -0.11 | 49.2 °C | 50.1 °C
MAKRKEENFSSPKNAKRPRQEELEDFDKDGDEDECKGTTLTAAEVGIIESIHLKNFMCHSMLGPFKFGSNVNFVVGNNGSGKSAVLTALIVGLGGRAVATNRGSSLKGFVKDGQNSADISITLRNRGDDAFKASVYGNSILIQQHISIDGSRSYKLKSATGSVVSTRKEELIAILDHFNIQVDNPVSVLTQEMSKQFLQSKNEGDKYKFFMKATQLEQMKEDYSYIMETKERTKEQIHQGEERLTELKRQCVEKEERFQSIAGLSTMKTNLESLKHEMAWAVVNEIEKQLNAIRDNIKIGEDRAARLDRKMEEQQVRLNEAEQKYKDIQDKLEKISEETNARAPECMALKADVVAKKRAYNEAEVLYNRSLNEYKALKKDDEQLCKRIEELKKSTDQSLEPERLERQKKISWLKERVKAFQNQENSVNQEIEQFQQAIEKDKEEHGKIKREELDVKHALSYNQRQLKELKDSKTDRLKRFGPNVPALLEAIDDAYRQGHFTYKPVGPLGACIHLRDPELALAIESCLKGLLQAYCCHNHADERVLQALMKRFYLPGTSRPPIIVSEFRNEIYDVRHRAAYHPDFPTVLTALEIDNAVVANSLIDMRGIETVLLIKNNSVARAVMQSQKPPKNCREAFTADGDQVFAGRYYSSENTRPKFLSRDVDSEISDLENEVENKTAQILNLQQHLSALEKDIKHNEELLKRCQLHYKELKMKIRKNISEIRELENIEEHQSVDIATLEDEAQENKSKMKMVEEHMEQQKENMEHLKSLKIEAENKYDAIKFKINQLSELADPLKDELNLADSEVDNQKRGKRHYEEKQKEHLDTLNKKKRELDMKEKELEEKMSQARQICPERIEVEKSASILDKEINRLRQKIQAEHASHGDREEIMRQYQEARETYLDLDSKVRTLKKFIKLLGEIMEHRFKTYQQFRRCLTLRCKLYFDNLLSQRAYCGKMNFDHKNETLSISVQPGEGNKAAFNDMRALSGGERSFSTVCFILSLWSIAESPFRCLDEFDVYMDMVNRRIAMDLILKMADSQRFRQFILLTPQSMSSLPSSKLIRILRMSDPERGQTTLPFRPVTQEEDDDQR [SMC6] | -0.133 | 0.465 | -0.0501 | 0.0261 | 50.6 °C | 50.4 °C
MDWLMGKSKAKPNGKKPAAEERKAYLEPEHTKARITDFQFKELVVLPREIDLNEWLASNTTTFFHHINLQYSTISEFCTGETCQTMAVCNTQYYWYDERGKKVKCTAPQYVDFVMSSVQKLVTDEDVFPTKYGREFPSSFESLVRKICRHLFHVLAHIYWAHFKETLALELHGHLNTLYVHFILFAREFNLLDPKETAIMDDLTEVLCSGAGGVHSGGSGDGAGSGGPGAQNHVKER [MOB2] | -0.0333 | 0.797 | 0.832 | 0.0638 | 50.1 °C | –
PRSS21 | 0.0531 | 0.469 | 0.197 | -0.176 | 52.9 °C | 52.9 °C
MQPQSVLHSGYFHPLLRAWQTATTTLNASNLIYPIFVTDVPDDIQPITSLPGVARYGVKRLEEMLRPLVEEGLRCVLIFGVPSRVPKDERGSAADSEESPAIEAIHLLRKTFPNLLVACDVCLCPYTSHGHCGLLSENGAFRAEESRQRLAEVALAYAKAGCQVVAPSDMMDGRVEAIKEALMAHGLGNRVSVMSYSAKFASCFYGPFRDAAKSSPAFGDRRCYQLPPGARGLALRAVDRDVREGADMLMVKPGMPYLDIVREVKDKHPDLPLAVYHVSGEFAMLWHGAQAGAFDLKAAVLEAMTAFRRAGADIIITYYTPQLLQWLKEE [ALAD] | 0.106 | -2.61 | -2.88 | -0.212 | 57 °C | 55.2 °C
MSRRRHSDENDGGQPHKRRKTSDANETEDHLESLICKVGEKSACSLESNLEGLAGVLEADLPNYKSKILRLLCTVARLLPEKLTIYTTLVGLLNARNYNFGGEFVEAMIRQLKESLKANNYNEAVYLVRFLSDLVNCHVIAAPSMVAMFENFVSVTQEEDVPQVRRDWYVYAFLSSLPWVGKELYEKKDAEMDRIFANTESYLKRRQKTHVPMLQVWTADKPHPQEEYLDCLWAQIQKLKKDRWQERHILRPYLAFDSILCEALQHNLPPFTPPPHTEDSVYPMPRVIFRMFDYTDDPEGPVMPGSHSVERFVIEENLHCIIKSHWKERKTCAAQLVSYPGKNKIPLNYHIVEVIFAELFQLPAPPHIDVMYTTLLIELCKLQPGSLPQVLAQATEMLYMRLDTMNTTCVDRFINWFSHHLSNFQFRWSWEDWSDCLSQDPESPKPKFVREVLEKCMRLSYHQRILDIVPPTFSALCPANPTCIYKYGDESSNSLPGHSVALCLAVAFKSKATNDEIFSILKDVPNPNQDDDDDEGFSFNPLKIEVFVQTLLHLAAKSFSHSFSALAKFHEVFKTLAESDEGKLHVLRVMFEVWRNHPQMIAVLVDKMIRTQIVDCAAVANWIFSSELSRDFTRLFVWEILHSTIRKMNKHVLKIQKELEEAKEKLARQHKRRSDDDDRSSDRKDGVLEEQIERLQEKVESAQSEQKNLFLVIFQRFIMILTEHLVRCETDGTSVLTPWYKNCIERLQQIFLQHHQIIQQYMVTLENLLFTAELDPHILAVFQQFCALQA [NCBP1] | -0.297 | 0.234 | 0.31 | -0.144 | 50 °C | 50.4 °C
MAQALSEEEFQRMQAQLLELRTNNYQLSDELRKNGVELTSLRQKVAYLDKEFSKAQKALSKSKKAQEVEVLLSENEMLQAKLHSQEEDFRLQNSTLMAEFSKLCSQMEQLEQENQQLKEGAAGAGVAQAGPLVDGELLRLQAENTALQKNVAALQERYGKEAGKFSAVSEGQGDPPGGLAPTVLAPMPLAEVELKWEMEKEEKRLLWEQLQGLESSKQAETSRLQEELAKLSEKLKKKQESFCRLQTEKETLFNDSRNKIEELQQRKEADHKAQLARTQKLQQELEAANQSLAELRDQRQGERLEHAAALRALQDQVSIQSADAQEQVEGLLAENNALRTSLAALEQIQTAKTQELNMLREQTTGLAAELQQQQAEYEDLMGQKDDLNSQLQESLRANSRLLEQLQEIGQEKEQLTQELQEARKSAEKRKAMLDELAMETLQEKSQHKEELGAVRLRHEKEVLGVRARYERELRELHEDKKRQEEELRGQIREEKARTRELETLQQTVEELQAQVHSMDGAKGWFERRLKEAEESLQQQQQEQEEALKQCREQHAAELKGKEEELQDVRDQLEQAQEERDCHLKTISSLKQEVKDTVDGQRILEKKGSAALKDLKRQLHLERKRADKLQERLQDILTNSKSRSGLEELVLSEMNSPSRTQTGDSSSISSFSYREILREKESSAVPARSLSSSPQAQPPRPAELSDEEVAELFQRLAETQQEKWMLEEKVKHLEVSSASMAEDLCRKSAIIETYVMDSRIDVSVAAGHTDRSGLGSVLRDLVKPGDENLREMNKKLQNMLEEQLTKNMHLHKDMEVLSQEIVRLSKECVGPPDPDLEPGETS [GRIPAP1] | 0.476 | 0.674 | -0.142 | -0.112 | 49.3 °C | 49.8 °C
LARS | -0.189 | -0.182 | 2.83 | -0.14 | 49 °C | 49.1 °C
MAARTVIIDHGSGFLKAGTAGWNEPQMVFPNIVNYLPCKENPGPSYARRRVSLGIDICHPDTFSYPIERGRILNWEGVQYLWSFVLENHRREQEVPPVIITETPLREPADRKKMLEILFELLHVPSVLLADQLQMSLYASGLLTGVVVDSGYGLTRVQPFHQGRPLPASGKTLEFAGQDLSAYLLKSLFKEDCDRRCLFQLETVAVTQMNKCYVPQNLGEALDFRERQQSALDESNTYQLPDGSRVELTPMQRVAPEMFFSPQVFEQPGPSIPRAIVESVESCEISLRPLLVSHVMACGGNTLYPGFTKRLFRELMGDHVSSTKATVWEGSNRNFSVWLGASVVAHLSTYQSEWMSREEYGEHMRM [ACTL8] | -0.19 | -0.233 | -1.1 | 0.0715 | 52.8 °C | 52.4 °C
MAQVEKRGGLLRKSSASKKPLKEKVVLMYDEIFMTEDPSKCSPRFWEELFLMKVNLEYLEGKLESLDGEELMKIKDNINCLFQHCIQALGEEHPIRVVNALQTLCALIRGVHQKNKSTSGFDIINMLMGFDKAELCMKNLMESLDSLLCAEGSESLKSLCLKLLLCLVTVTDNISQNTILEYVMINSIFEAILQILSHPPSRREHGYDAVVLLALLVNYRKYESVNPYIVKLSIVDDEATLNGMGLVIAQALSEYNRQYKDKEEEHQSGFFSALTNMVGSMFIADAHEKISVQTNEAILLALYEAVHLNRNFITVLAQSHPEMGLVTTPVSPAPTTPVTPLGTTPPSSDVISSVELPLDADVQTSNLLITFLKYSSIVMQDTKDEHRLHSGKLCLIILTCIAEDQYANAFLHDDNMNFRVNLHRMPMRHRKKAADKNLPCRPLVCAVLDLMVEFIVTHMMKEFPMDLYIRCIQVVHKLLCYQKKCRVRLHYTWRELWSALINLLKFLMSNETVLLAKHNIFTLALMIVNLFNMFITYGDTFLPTPSSYDELYYEIIRMHQSFDNLYSMVLRLSTNAGQWKEAASKVTHALVNIRAIINHFNPKIESYAAVNHISQLSEEQVLEVVRANYDTLTLKLQDGLDQYERYSEQHKEAAFFKELVRSISTNVRRNLAFHTLSQEVLLKEFSTIS [C10ORF76] | -0.113 | -0.1 | -1.32 | -0.122 | 54.1 °C | 55.3 °C
MEKSRMNLPKGPDTLCFDKDEFMKEDFDVDHFVSDCRKRVQLEELRDDLELYYKLLKTAMVELINKDYADFVNLSTNLVGMDKALNQLSVPLGQLREEVLSLRSSVSEGIRAVDERMSKQEDIRKKKMCVLRLIQVIRSVEKIEKILNSQSSKETSALEASSPLLTGQILERIATEFNQLQFHAVQSKGMPLLDKVRPRIAGITAMLQQSLEGLLLEGLQTSDVDIIRHCLRTYATIDKTRDAEALVGQVLVKPYIDEVIIEQFVESHPNGLQVMYNKLLEFVPHHCRLLREVTGGAISSEKGNTVPGYDFLVNSVWPQIVQGLEEKLPSLFNPGNPDAFHEKYTISMDFVRRLERQCGSQASVKRLRAHPAYHSFNKKWNLPVYFQIRFREIAGSLEAALTDVLEDAPAESPYCLLASHRTWSSLRRCWSDEMFLPLLVHRLWRLTLQILARYSVFVNELSLRPISNESPKEIKKPLVTGSKEPSITQGNTEDQGSGPSETKPVVSISRTQLVYVVADLDKLQEQLPELLEIIKPKLEMIGFKNFSSISAALEDSQSSFSACVPSLSSKIIQDLSDSCFGFLKSALEVPRLYRRTNKEVPTTASSYVDSALKPLFQLQSGHKDKLKQAIIQQWLEGTLSESTHKYYETVSDVLNSVKKMEESLKRLKQARKTTPANPVGPSGGMSDDDKIRLQLALDVEYLGEQIQKLGLQASDIKSFSALAELVAAAKDQATAEQP [COG2] | 0.0645 | 0.195 | 0.834 | -0.0298 | 50.2 °C | 49.4 °C
